Values of other authors in PMC5221605.

Legend:
[1] = target: Fibrinogen Aα-chain 561-575 (Homo sapiens) (UniProt P02671)
[2] = target: Fibrinogen (Homo sapiens) (UniProt P02671)
Fibrin (Homo sapiens) = Fibrin (Homo sapiens) (UniProt P02671)

UniProt P02671, sequence (P02671 36-866, chain 1 of 3): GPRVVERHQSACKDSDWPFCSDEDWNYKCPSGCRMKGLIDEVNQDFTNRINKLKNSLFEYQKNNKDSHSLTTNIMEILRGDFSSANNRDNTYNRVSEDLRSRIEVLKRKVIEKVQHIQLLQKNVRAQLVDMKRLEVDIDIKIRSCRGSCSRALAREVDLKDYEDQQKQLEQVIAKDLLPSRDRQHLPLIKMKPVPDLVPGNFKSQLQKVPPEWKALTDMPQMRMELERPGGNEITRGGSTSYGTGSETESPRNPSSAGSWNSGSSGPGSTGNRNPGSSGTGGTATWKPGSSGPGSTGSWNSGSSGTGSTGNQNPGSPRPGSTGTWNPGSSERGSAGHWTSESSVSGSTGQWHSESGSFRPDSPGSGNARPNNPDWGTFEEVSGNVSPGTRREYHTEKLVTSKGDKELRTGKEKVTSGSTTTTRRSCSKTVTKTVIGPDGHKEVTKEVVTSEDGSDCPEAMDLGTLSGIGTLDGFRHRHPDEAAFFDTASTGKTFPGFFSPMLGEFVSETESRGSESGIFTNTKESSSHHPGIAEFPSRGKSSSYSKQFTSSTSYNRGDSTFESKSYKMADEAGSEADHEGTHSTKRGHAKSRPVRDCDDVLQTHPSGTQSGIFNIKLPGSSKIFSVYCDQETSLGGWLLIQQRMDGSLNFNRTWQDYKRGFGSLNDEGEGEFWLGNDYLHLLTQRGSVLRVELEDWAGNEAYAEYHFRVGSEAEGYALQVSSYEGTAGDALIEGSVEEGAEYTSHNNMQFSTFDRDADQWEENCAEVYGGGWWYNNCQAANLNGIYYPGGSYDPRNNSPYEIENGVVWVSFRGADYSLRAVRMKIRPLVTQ
UniProt P02671, sequence (P02675 45-491, chain 2 of 3, further chain): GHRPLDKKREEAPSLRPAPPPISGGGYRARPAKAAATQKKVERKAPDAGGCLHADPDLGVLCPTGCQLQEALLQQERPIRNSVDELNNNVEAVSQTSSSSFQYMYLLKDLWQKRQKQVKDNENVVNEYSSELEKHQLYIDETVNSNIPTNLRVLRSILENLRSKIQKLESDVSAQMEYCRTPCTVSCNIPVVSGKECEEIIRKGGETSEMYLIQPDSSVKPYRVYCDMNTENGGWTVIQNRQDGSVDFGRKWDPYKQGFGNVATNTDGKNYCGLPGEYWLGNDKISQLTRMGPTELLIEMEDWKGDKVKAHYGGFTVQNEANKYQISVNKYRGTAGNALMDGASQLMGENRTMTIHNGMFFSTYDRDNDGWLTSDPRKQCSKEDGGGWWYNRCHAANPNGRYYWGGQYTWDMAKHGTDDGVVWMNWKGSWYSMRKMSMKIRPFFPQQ
UniProt P02671, sequence (P02679 27-453, chain 3 of 3, further chain): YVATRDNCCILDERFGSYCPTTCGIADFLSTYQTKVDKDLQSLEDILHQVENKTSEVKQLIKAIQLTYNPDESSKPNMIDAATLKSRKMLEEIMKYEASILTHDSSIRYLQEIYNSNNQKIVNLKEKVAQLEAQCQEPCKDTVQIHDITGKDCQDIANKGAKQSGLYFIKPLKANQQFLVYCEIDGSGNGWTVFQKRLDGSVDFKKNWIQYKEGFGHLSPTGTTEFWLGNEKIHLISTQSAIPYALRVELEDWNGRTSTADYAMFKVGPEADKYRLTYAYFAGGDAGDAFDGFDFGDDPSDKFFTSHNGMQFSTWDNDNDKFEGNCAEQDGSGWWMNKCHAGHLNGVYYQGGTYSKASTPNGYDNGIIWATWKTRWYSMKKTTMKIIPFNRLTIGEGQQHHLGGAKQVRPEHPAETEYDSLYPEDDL

Substance	Kd [1] [nM]	Kd [2] [nM]	Kd (Fibrin (Homo sapiens)) [nM]
Bbp N2-N3 (from UniProt Q6GJA6)	500	–	–
ClfA (from UniProt Q2G015)	–	500	500
